{"source": "paper PMC10519446", "data": [{"substrate": "Nc1ncnc2c1ncn2[C@@H]1O[C@H](COP(=O)(O)OP(=O)(O)OP(=O)(O)O)[C@@H](O)[C@H]1O", "assay": "purified protein", "details": "co-substrate N-acetylmannosamine", "units": {"kcat": "s⁻¹"}, "values": [{"protein": "NanK (N-acetylmannosamine kinase) (Escherichia coli K-12) (protein) MTTLAIDIGGTKLAAALIGADGQIRDRRELPTPASQTPEALRDALSALVSPLQAHAQRVAIASTGIIRDGSLLALNPHNLGGLLHFPLVKTLEQLTNLPTIAINDAQAAAWAEFQALDGDITDMVFITVSTGVGGGVVSGCKLLTGPGGLAGHIGHTLADPHGPVCGCGRTGCVEAIASGRGIAAAAQGELAGADAKTIFTRAGQGDEQAQQLIHRSARTLARLIADIKATTDCQCVVVGGSVGLAEGYLALVETYLAQEPAAFHVDLLAAHYRHDAGLLGAALLAQGEKL", "Km": "(1.4 ± 0.2)×10^−4 M", "kcat": "29 ± 0.5"}, {"protein": "NanK (N-acetylmannosamine kinase) (Escherichia coli K-12; L84R) (protein) MTTLAIDIGGTKLAAALIGADGQIRDRRELPTPASQTPEALRDALSALVSPLQAHAQRVAIASTGIIRDGSLLALNPHNLGGLRHFPLVKTLEQLTNLPTIAINDAQAAAWAEFQALDGDITDMVFITVSTGVGGGVVSGCKLLTGPGGLAGHIGHTLADPHGPVCGCGRTGCVEAIASGRGIAAAAQGELAGADAKTIFTRAGQGDEQAQQLIHRSARTLARLIADIKATTDCQCVVVGGSVGLAEGYLALVETYLAQEPAAFHVDLLAAHYRHDAGLLGAALLAQGEKL", "Km": "(8.3 ± 1.4)×10^−5 M", "kcat": "17 ± 0.3"}, {"protein": "NanK (N-acetylmannosamine kinase) (Escherichia coli K-12; L84P) (protein) MTTLAIDIGGTKLAAALIGADGQIRDRRELPTPASQTPEALRDALSALVSPLQAHAQRVAIASTGIIRDGSLLALNPHNLGGLPHFPLVKTLEQLTNLPTIAINDAQAAAWAEFQALDGDITDMVFITVSTGVGGGVVSGCKLLTGPGGLAGHIGHTLADPHGPVCGCGRTGCVEAIASGRGIAAAAQGELAGADAKTIFTRAGQGDEQAQQLIHRSARTLARLIADIKATTDCQCVVVGGSVGLAEGYLALVETYLAQEPAAFHVDLLAAHYRHDAGLLGAALLAQGEKL", "Km": "(1.4 ± 0.3)×10^−4 M", "kcat": "13 ± 0.2"}]}]}
